Test results published in paper PMC13147308.

Assays:
[1] = molecular target: SauCas9 WED-PI domain construct, His-tagged (Staphylococcus aureus); assay: ITC; AcrIIA13b mutants E31K and E39K with SauCas9 and WED-PI (Fig. S7); buffer not told for this experiment
[2] = molecular target: Staphylococcus aureus Cas9, full length, His-tagged (Staphylococcus aureus) (UniProt J7RUA5); assay: ITC; PBS pH 7.4, 20 °C; AcrIIA13b (500 μM) injected into the target protein (50 μM) in the cell, 25 injections; single-site model
[3] = molecular target: SauCas9 PI (PAM-interacting) domain, His-tagged (Staphylococcus aureus); assay: as above
[4] = molecular target: Staphylococcus haemolyticus AcrIIA13b, wild type, with C-terminal 6xHis tag (Staphylococcus haemolyticus); assay: SEC-MALS; Superdex 200 Increase 10/300 GL, 20 mM Tris/HCl pH 8.0, 150 mM NaCl, 20 °C, 0.5 mL/min; SEC profiles and MALS of wild type and mutants; monomer and dimer peaks coexist
[5] = molecular target: Staphylococcus aureus Cas9, full length, His-tagged (UniProt J7RUA5); assay: SEC co-migration followed by SDS/PAGE band quantification; details: fraction eluted around 12 mL in SEC; n = 3; parent: est. 100; read off a plot

Substance	percent of parent [5]	also measured
AcrIIA13b E39K mutant (natural protein)	–	Kd [1]: 1.31 µM
Staphylococcus haemolyticus AcrIIA13b, wild type, with C-terminal 6xHis tag (natural protein)	–	Kd [2]: 4.47 µM; Kd [3]: 0.97 µM; stoichiometry N [4]: 2
Staphylococcus haemolyticus AcrIIA13b, wild type, with C-terminal 6xHis tag E21K	75%	–
Staphylococcus haemolyticus AcrIIA13b, wild type, with C-terminal 6xHis tag E31K	13%	–
Staphylococcus haemolyticus AcrIIA13b, wild type, with C-terminal 6xHis tag E39K	35%	–
Staphylococcus haemolyticus AcrIIA13b, wild type, with C-terminal 6xHis tag E89W	84%	–
Staphylococcus haemolyticus AcrIIA13b, wild type, with C-terminal 6xHis tag E94W	87%	–
Staphylococcus haemolyticus AcrIIA13b, wild type, with C-terminal 6xHis tag Q25W	46%	–
Staphylococcus haemolyticus AcrIIA13b, wild type, with C-terminal 6xHis tag Q87W	75%	–
